Reference: patent US20260153518A1, “DIAGNOSIS OF IMMUNE-MEDIATED INFLAMMATORY DISEASES USING MMP12 AS INDICATOR, AND MEDICINE FOR TREATING IMMUNE-MEDIATED INFLAMMATORY DISEASES VIA MMP12 INHIBITION” (KEIO UNIVERSITY, priority 2022, published 2026)
Blank lines part the entries; values can stand above or below the molecule they belong to. Where no end group is shown, it is not given here.

Columns and labels:
h MMP12 = h MMP12 (Homo sapiens, UniProt P39900); test: Evaluation of cleavage of candidate peptides by MMP12 (UPLC); format: biochemical; settings: for Number of cleavage peaks, Test: UPLC after incubation with h MMP12, 37° C.; for Number of cleavage peaks, Test / Cleavage rate (%) of each candidate peptide by MMP12: 16 hours; for Cleavage rate (%) of each candidate peptide by MMP12: activated h MMP12 2.0 ng/μL mixed 1:1 with 40 μM peptide, 37° C., UPLC peak area before/after, 440 nm; for cleavage rate by MMP12 (in words: low / medium / high) / cleavage site by MMP12: summary of Table 3
Description: The evaluation of cleavage of candidate peptides by MMP12 was performed as follows.
On the first day, h MMP12 was diluted to 50 μg/mL with an assay buffer. APMA was added to the h MMP12 solution to adjust the final concentration of APMA to 1 mM, and the solution was incubated at 37° C. for 24 hours to activate h MMP12.
On the second day, activated h MMP12 was diluted to 2 ng/μL (=40 nM) with an assay buffer The substrate (peptide) was diluted to 40 μM with an assay buffer. 50 μL of h MMP12 (2.0 ng/μL) and 50 μL of the substrate (peptide) were mixed and incubated at 37° C. for 16 hours. A blank was prepared by mixing equal volumes of an assay buffer and the substrate (peptide).
On the third day, 100 μL of acetonitrile was added to the mixture from the second day. After centrifugation for 10 minutes, the supernatant was collected, and 10 μL of the supernatant was analyzed using ultra high performance liquid chromatography (UPLC).
UPLC was performed under the conditions of measurement wavelength: 440 nm, flow rate: 0.4 mL/min, A: H2O with 0.1% TFA, B: CH3CN with 0.1% TFA, and elution conditions 10% B→70% B in 9.5 min, and as a result, it was confirmed that the two positive controls were cleaved by MMP12 (data is not shown).
For the candidate peptide Nos, 2, 4 to 7, 11, 15 to 17, 19, 20, and 22, the evaluation of cleavage by MMP12 was performed in the same manner as for the positive controls. Cleavage by MMP12 was confirmed for all the peptides tested. For Nos. 2 and 4 to 7, the cleavage sites were L-Q and L-R/K, but the cleavage rates were different. […] For Nos. 11, 15, 17, 20, and 22, the cleavage site was E-L, but the cleavage rates were different. The cleavage rate of No. 11 was high and the cleavage rate of No. 15 was low even though these candidate peptides have E-L-l. The cleavage rates of Nos. 17, 20, and 22, which have E-L-R, were high.

[1] = tested on: SCG/ThpNkc mice (ANCA-associated vasculitis model mice); test: Therapeutic effects of MMP12 inhibitors on ANCA-associated vasculitis model mice; format: in vivo
Description: SCG/ThpNkc mice (see Proc Natl Acad Sci USA. 1993 Apr. 15; 90(8): 3413-7.) are ANCA-associated vasculitis model mice created by crossing and interbreeding two strains, MRL/Ipr and BXSB, and can be supplied from Laboratory Animal Resource Bank at the National Institute of Biomedical Innovation, Health and Nutrition (resource number: nbio133).
In this experiment, MMP408 (CAS No. 1258003-93-8), which is an MMP12 selective inhibitor, was administered to male SCG/ThpNkc mice, and the therapeutic effects of MMP408 were examined.
The SCG/ThpNkc mice were reared in cages with normal solid food and water. At weeks of age, it was confirmed that the mice had positive occult blood in their urine. From 11 weeks of age, MMP408 was administered via the intraperitoneal route at a dose of 100 μg twice a week. Urine analysis was performed at 15 and 20 weeks of age, and the mice were sacrificed at 20 weeks of age. The number of mice in an MMP408 non-administration group and the number of mice in an MMP408 administration group were n=25 and n=4, respectively.

h MMP12, sequence (P39900 106-470): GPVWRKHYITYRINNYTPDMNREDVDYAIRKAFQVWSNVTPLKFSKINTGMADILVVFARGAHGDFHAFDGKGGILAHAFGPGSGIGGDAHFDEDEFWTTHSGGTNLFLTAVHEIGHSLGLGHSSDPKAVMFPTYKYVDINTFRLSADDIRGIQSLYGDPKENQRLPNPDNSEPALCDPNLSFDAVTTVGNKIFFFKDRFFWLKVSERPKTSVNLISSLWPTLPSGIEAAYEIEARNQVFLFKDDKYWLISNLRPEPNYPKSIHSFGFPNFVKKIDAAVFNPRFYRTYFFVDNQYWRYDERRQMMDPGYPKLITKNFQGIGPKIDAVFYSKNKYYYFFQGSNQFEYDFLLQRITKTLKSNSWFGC

- Number of cleavage peaks, Test (h MMP12): 1
- Cleavage rate (%) of each candidate peptide by MMP12 (h MMP12): 26.0%
Molecule: APRIKKIVQKKLAG (not fully specified; also: 5-carboxyfluorescein label) [No. 19]

- Number of cleavage peaks, Test (h MMP12): 2
- Cleavage rate (%) of each candidate peptide by MMP12 (h MMP12): 100.0%
- cleavage rate by MMP12 (in words: low / medium / high) (h MMP12): high
- cleavage site by MMP12 (h MMP12): E-L
Molecule: LNVQRKAIHELIQV (not fully specified; also: 5-carboxyfluorescein label) [No. 11]

- Number of cleavage peaks, Test (h MMP12): 1
- Cleavage rate (%) of each candidate peptide by MMP12 (h MMP12): 98.6%
- cleavage rate by MMP12 (in words: low / medium / high) (h MMP12): high
- cleavage site by MMP12 (h MMP12): E-L
Molecule: APIANELRSQSLQT (not fully specified; also: 5-carboxyfluorescein label) [No. 17]

- Number of cleavage peaks, Test (h MMP12): 1
- Cleavage rate (%) of each candidate peptide by MMP12 (h MMP12): 10.5%
- cleavage rate by MMP12 (in words: low / medium / high) (h MMP12): low
- cleavage site by MMP12 (h MMP12): E-L
Molecule: RQAFNEKIRVVHQL (not fully specified; also: 5-carboxyfluorescein label) [No. 15]

- Number of cleavage peaks, Test (h MMP12): 2
- Cleavage rate (%) of each candidate peptide by MMP12 (h MMP12): 100.0%
- cleavage rate by MMP12 (in words: low / medium / high) (h MMP12): high
- cleavage site by MMP12 (h MMP12): E-L
Molecule: ASVVTELRSQSLQT (not fully specified; also: 5-carboxyfluorescein label) [No. 20]

- Number of cleavage peaks, Test (h MMP12): 3
- Cleavage rate (%) of each candidate peptide by MMP12 (h MMP12): 100.0%
- cleavage rate by MMP12 (in words: low / medium / high) (h MMP12): high
- cleavage site by MMP12 (h MMP12): E-L
Molecule: PAAAVLRELRSVS (not fully specified; also: 5-carboxyfluorescein label) [No. 22]

- Number of cleavage peaks, Test (h MMP12): 1
- Cleavage rate (%) of each candidate peptide by MMP12 (h MMP12): 61.7%
Molecule: PESSLRKRKRSR (not fully specified; also: 5-carboxyfluorescein label) [No. 16]

The remaining lines, values behind:

Molecule: COC(=O)Nc1ccc2oc3cc(S(=O)(=O)N[C@@H](C(=O)O)C(C)C)ccc3c2c1 [MMP408]
- urine occult blood ([1]; MMP408 administration group, week 20, FIG. 12 (n=2)): improved
- mice still alive at 20 weeks (survival curve) ([1]; male SCG/ThpNkc mice, MMP408 100 μg intraperitoneal twice a week from 11 weeks of age, n=4, log-rank test p=0.037 vs non-administration group (92% died by 20 weeks)): 2 out of 4

Molecule: SRNLQERLRRKE (not fully specified; also: 5-carboxyfluorescein label) [No. 05]
- Number of cleavage peaks, Test (h MMP12): 1
- Cleavage rate (%) of each candidate peptide by MMP12 (h MMP12): 38.5%
- cleavage rate by MMP12 (in words: low / medium / high) (h MMP12): medium to high

Molecule: DKVWQDYIKDMKEN [No. 02]
- Number of cleavage peaks, Test (h MMP12): 1
- Cleavage rate (%) of each candidate peptide by MMP12 (h MMP12): 56.0%
- cleavage rate by MMP12 (in words: low / medium / high) (h MMP12): medium

Molecule: SFSSSRNLQERL (not fully specified; also: 5-carboxyfluorescein label) [No. 06]
- Number of cleavage peaks, Test (h MMP12): 1
- Cleavage rate (%) of each candidate peptide by MMP12 (h MMP12): 90.3%
- cleavage rate by MMP12 (in words: low / medium / high) (h MMP12): medium to high

Molecule: STNLQESLRRKE (not fully specified; also: 5-carboxyfluorescein label) [No. 07]
- Number of cleavage peaks, Test (h MMP12): 2
- Cleavage rate (%) of each candidate peptide by MMP12 (h MMP12): 70.4%
- cleavage rate by MMP12 (in words: low / medium / high) (h MMP12): medium to high

Molecule: SLSFSTNLQKRL (not fully specified; also: 5-carboxyfluorescein label) [No. 04]
- Number of cleavage peaks, Test (h MMP12): 1
- Cleavage rate (%) of each candidate peptide by MMP12 (h MMP12): 53.5%
- cleavage rate by MMP12 (in words: low / medium / high) (h MMP12): medium
